How the values were obtained:
CbrB [1] = target: T1, CbrB (Pseudomonas putida, UniProt A0ABM7EKZ2 1-480); assay: EMSA; EMSA at room temperature; crcZ/crcY (5 nM): 35 mM Tris-acetate pH 7.9, 70 mM KAc, 20 mM NH4Ac, 2 mM MgAc2, 1 mM CaCl2, 1 mM DTT, 5% glycerol; others (1.5 nM) and footprint: 50 mM Tris-HCl pH 7.4, 50 mM KCl, 10 mM MgCl2, 0.1 mM EDTA, 1 mM DTT; plus 100 ng/ul salmon sperm DNA, 250 ng/ul BSA; conditions: protein: recombinant, tags: N-terminal His tag (pET-14b derived pMPO1229), label: 32P-dATP Klenow fill-in
T1 sequence: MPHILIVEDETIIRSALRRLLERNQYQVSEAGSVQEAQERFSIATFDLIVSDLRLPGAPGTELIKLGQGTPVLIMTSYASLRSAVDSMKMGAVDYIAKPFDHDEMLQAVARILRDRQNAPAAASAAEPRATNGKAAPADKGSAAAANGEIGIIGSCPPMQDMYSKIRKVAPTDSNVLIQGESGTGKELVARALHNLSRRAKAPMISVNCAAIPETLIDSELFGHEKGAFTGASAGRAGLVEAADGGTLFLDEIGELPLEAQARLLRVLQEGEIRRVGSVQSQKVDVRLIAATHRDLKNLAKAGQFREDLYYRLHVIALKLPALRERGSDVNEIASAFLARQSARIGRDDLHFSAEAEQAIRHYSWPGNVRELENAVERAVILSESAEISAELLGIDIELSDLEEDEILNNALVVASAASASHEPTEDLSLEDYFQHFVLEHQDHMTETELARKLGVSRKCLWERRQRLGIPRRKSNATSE

CbrB [2] = target: T1, CbrB; assay: EMSA; not significantly affected; EMSA at room temperature; crcZ/crcY (5 nM): 35 mM Tris-acetate pH 7.9, 70 mM KAc, 20 mM NH4Ac, 2 mM MgAc2, 1 mM CaCl2, 1 mM DTT, 5% glycerol; others (1.5 nM) and footprint: 50 mM Tris-HCl pH 7.4, 50 mM KCl, 10 mM MgCl2, 0.1 mM EDTA, 1 mM DTT; plus 100 ng/ul salmon sperm DNA, 250 ng/ul BSA; conditions: protein: recombinant; tags: N-terminal His tag (pET-14b derived pMPO1229); label: 32P-dATP Klenow fill-in; 5' overhang 2 nt at both ends before fill-in
[3] = 5' overhang 2 nt at both ends before fill-in

B1: PcrcY wt 72 bp (dsDNA)
DNA 1: TTGTGTGGGTGAAGTGTTACCTCCCGCACATTTCACAGCAAAAAATCGGGTAACAGGGAAACAAATCGGCAGAA
DNA 2: TTTTCTGCCGATTTGTTTCCCTGTTACCCGATTTTTTGCTGTGAAATGTGCGGGAGGTAACACTTCACCCACAC
B1: binds (CbrB [1]; [3]).

B2: PcrcY R2 mutant (dsDNA)
DNA 1: TTGTGTGGGTGAAGTGTTACCTCCCGCACATTTCACAGCAAAAAATCGGGTAACAGGTCTCATAATCGGCAGAA
DNA 2: TTTTCTGCCGATTATGAGACCTGTTACCCGATTTTTTGCTGTGAAATGTGCGGGAGGTAACACTTCACCCACAC
B2: binds (CbrB [2]).

B3: PcrcY F1 mutant (dsDNA)
DNA 1: TTGTGTGGGTGAAGGACTCTCTCCCGCACATTTCACAGCAAAAAATCGGGTAACAGGGAAACAAATCGGCAGAA
DNA 2: TTTTCTGCCGATTTGTTTCCCTGTTACCCGATTTTTTGCTGTGAAATGTGCGGGAGAGAGTCCTTCACCCACAC
B3: no binding (CbrB [1]; [3]).

B4: PcrcY R' mutant (dsDNA)
DNA 1: TTGTGTGGGTGAAGTGTTACCTCCCGCACATTTCACAGCAAAAAATCGGTACCGTGGGAAACAAATCGGCAGAA
DNA 2: TTTTCTGCCGATTTGTTTCCCACGGTACCGATTTTTTGCTGTGAAATGTGCGGGAGGTAACACTTCACCCACAC
B4: binds (CbrB [2]).

B5: PcrcZ wt 72 bp (dsDNA)
DNA 1: TTCCCGTAAAAATCTGTTACCCAAGCTTTCCGCCGTAACAGTCCCCGAGGCGTACGGTAACGAAATTGCGACAT
DNA 2: TTATGTCGCAATTTCGTTACCGTACGCCTCGGGGACTGTTACGGCGGAAAGCTTGGGTAACAGATTTTTACGGG
B5: binds (CbrB [1]; [3]).

B6: PcrcZ R1 mutant (dsDNA)
DNA 1: TTCCCGTAAAAATCTGTTACCCAAGCTTTCCGCCTGCTACGTCCCCGAGGCGTACGGTAACGAAATTGCGACAT
DNA 2: TTATGTCGCAATTTCGTTACCGTACGCCTCGGGGACGTAGCAGGCGGAAAGCTTGGGTAACAGATTTTTACGG
B6: no binding (CbrB [1]; 5' overhang 2 nt (one end 3 nt, reverse strand printed one G shorter) before fill-in).

B7: PcrcZ R2 mutant (dsDNA)
DNA 1: TTCCCGTAAAAATCTGTTACCCAAGCTTTCCGCCGTAACAGTCCCCGAGGCGTACGTACCGTAAATTGCGACAT
DNA 2: TTATGTCGCAATTTACGGTACGTACGCCTCGGGGACTGTTACGGCGGAAAGCTTGGGTAACAGATTTTTACGGG
B7: no binding (CbrB [1]; [3]).

B8: PcrcZ F1 mutant (dsDNA)
DNA 1: TTCCCGTAAAAATCGACTCTCCAAGCTTTCCGCCGTAACAGTCCCCGAGGCGTACGGTAACGAAATTGCGACAT
DNA 2: TTATGTCGCAATTTCGTTACCGTACGCCTCGGGGACTGTTACGGCGGAAAGCTTGGAGAGTCGATTTTTACGGG
B8: no binding (CbrB [1]; [3]).

Reference: paper PMC6296734, “The CbrB Regulon: Promoter dissection reveals novel insights into the CbrAB expression network in Pseudomonas putida”
